Source: patent publication US20190330296A1

Molecular target: human GLP-1 receptor (human) (UniProt P43220)
Test: cell-based or functional assay

Sequence of human GLP-1 receptor (human) (P43220 24-463): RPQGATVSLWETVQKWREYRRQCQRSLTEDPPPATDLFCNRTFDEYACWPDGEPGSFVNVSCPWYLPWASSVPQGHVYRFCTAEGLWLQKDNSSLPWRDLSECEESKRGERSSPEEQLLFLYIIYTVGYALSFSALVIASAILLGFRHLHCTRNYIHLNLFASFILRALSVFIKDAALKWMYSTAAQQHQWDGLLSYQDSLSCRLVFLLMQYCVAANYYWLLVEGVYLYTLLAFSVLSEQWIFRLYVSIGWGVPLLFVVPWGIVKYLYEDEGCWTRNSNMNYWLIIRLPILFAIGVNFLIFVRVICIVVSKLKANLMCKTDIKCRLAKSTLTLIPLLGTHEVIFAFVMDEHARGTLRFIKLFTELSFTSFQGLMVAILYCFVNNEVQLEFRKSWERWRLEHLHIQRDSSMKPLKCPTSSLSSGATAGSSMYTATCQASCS

Dulaglutide (Fc fusion)
Human GLP1R EC50: 0.035 nM
